Target: T1, recombinant human p65 protein, full-length, with DDK (r-p65:DDK) (human, UniProt Q04206 1-551)
T1 construct: mature; also called full-length r-p65:DDK; p65 subunit of NF-kB; not shown: DDK tag
Assay: kinetic ELISA, plate-bound GILZ-P probed with r-p65:DDK; Scatchard plot and linear regression; plate-bound GILZ-P (synthetic peptide), not r-GILZ

T1 sequence (Q04206 whole entry): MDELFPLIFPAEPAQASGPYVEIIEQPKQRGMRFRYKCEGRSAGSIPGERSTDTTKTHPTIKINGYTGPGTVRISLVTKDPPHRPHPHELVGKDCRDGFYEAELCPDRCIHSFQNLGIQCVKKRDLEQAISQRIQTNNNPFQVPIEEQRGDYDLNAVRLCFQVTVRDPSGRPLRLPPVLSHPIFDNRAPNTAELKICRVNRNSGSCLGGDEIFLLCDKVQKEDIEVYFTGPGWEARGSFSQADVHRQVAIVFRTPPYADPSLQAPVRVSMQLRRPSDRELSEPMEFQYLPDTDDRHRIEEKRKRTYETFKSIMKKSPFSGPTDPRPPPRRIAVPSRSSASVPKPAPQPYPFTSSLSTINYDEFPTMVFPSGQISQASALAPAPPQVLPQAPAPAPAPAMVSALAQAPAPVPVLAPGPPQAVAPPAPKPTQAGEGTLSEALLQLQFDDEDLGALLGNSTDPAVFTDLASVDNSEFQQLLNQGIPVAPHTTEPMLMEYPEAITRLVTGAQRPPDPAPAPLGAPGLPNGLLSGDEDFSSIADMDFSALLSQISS

Ac-CLSPEEPAPESPQVPEAPGGSAV-NH2 (also called GILZ-WT; GILZ-P115-137) [GILZ-peptide (GILZ-P), synthetic peptide from the carboxy terminus of GILZ]
Kd: 1120 nM
